Measurements taken from patent publication US20190112367A1.

How the values were obtained:
[1] = molecular target: human IL-32gamma (R&D) (human) (UniProt P24001); experiment: cell-based or functional assay
[2] = molecular target: IL-32 (isotype not stated, analyte of the SPR experiment) (UniProt P24001); experiment: SPR, ProteOn XPR36, IL-32 injected over the antibody
[3] = molecular target: human IL-32gamma (R&D) (human) (UniProt P24001); experiment: ELISA, antigen coated at 1 µg/ml, serial dilutions of MAB

Row | Binder | IC 50 (neutralization of IL-32γ activity) [1] [mg/L] | Kd [2] [nM] | EC50 [3] [mg/L]
1 | anti-IL-32 antibody 2C2 (IgG3, lambda) (antibody, V domains shown) VH: QLRVQESGPGLLKPAETLSLTCSVSSGSVSNSRYYWAWIRQSPGKGLEWIGSMYYRGRSYYNPSLKSRLTISIDTSKNQFSLKLTSLTAADTAVYYCAAAVYHDLDYWGQGTLVTVSS VL: QSVLTQPPSVSAAPGQKVTISCSGSGSSIGNNYVSWYQQLPGAAPKLLIYDNTKRPSGIPDRFSGSKSGTSATLAITGLQPGDAADYYCGTWDSSFSVFWVFGGGTKLTVLS | 0.3 | 4 | 0.526
2 | anti-IL-32 antibody 26A6 (IgG1, lambda) (antibody, V domains shown) VH: QVQLVESGGGVVQPGRSLRLSCVASGLTFRTYGMHWVRQAPGNGLEWVAIIWHDGNKKYFADSVKGRFTISRDNSKNSLYLQMNSLRVEDTAVYYCAREMNGIDVWGQGTTVTVSS VL: SYELTQPPSVSVSPGQTARITCSGDALPETYVYWYQQKSGQAPVKLIYEDSERPSGIPERFSGSSSGTLATLTISGAHVEDEADYYCYSTDSSGIGVFGGGTKVTVLS | – | – | 1.33
